T1: JCV T-ag OBD wt (JC virus (JCV), UniProt P03072 132-261)
T1 sequence: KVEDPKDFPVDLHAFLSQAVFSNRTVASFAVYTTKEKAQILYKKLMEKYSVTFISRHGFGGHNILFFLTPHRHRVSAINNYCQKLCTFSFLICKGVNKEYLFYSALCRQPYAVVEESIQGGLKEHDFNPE

B1: TBS probe, single GAGGC (dsDNA)
DNA 1: CCGAGGCCATTCTGAGAATTGAGC
DNA 2: GCTCAATTCTCAGAATGGCCTCGG
B2: Site II duplex, four GAGGC pentanucleotides (dsDNA)
DNA 1: TACAGGAGGCCGAGGCCGCCTCCGCCTCCAAGC
DNA 2: GCTTGGAGGCGGAGGCGGCCTCGGCCTCCTGTA

Legend:
JCV T-ag OBD wt [1] = target: T1, JCV T-ag OBD wt; assay: fluorescence anisotropy; ITC: 10 mM Na phosphate pH 7.0, 50 mM NaCl, 5 mM DTT; anisotropy: 20 mM Hepes pH 7.4, 50 mM NaCl, 0.01% NP40, 0.1 mM DTT, 15 nM probe; temperature not stated; settings: protein: recombinant; tags: expressed from pGEX1λT (GST vector); label: 5' fluorescein (six-carbon linker) on one strand
JCV T-ag OBD wt [2] = target: T1, JCV T-ag OBD wt; assay: ITC; ITC: 10 mM Na phosphate pH 7.0, 50 mM NaCl, 5 mM DTT; anisotropy: 20 mM Hepes pH 7.4, 50 mM NaCl, 0.01% NP40, 0.1 mM DTT, 15 nM probe; temperature not stated; settings: protein: recombinant; tags: expressed from pGEX1λT (GST vector)

| Binder | Kd (JCV T-ag OBD wt [1]) | Kd (JCV T-ag OBD wt [2]) |
| --- | --- | --- |
| B1 | 93 ± 21 nM | – |
| B2 | – | 172 nM |

Source: publication PMC4703215, “Structural Based Analyses of the JC Virus T-Antigen F258L Mutant Provides Evidence for DNA Dependent Conformational Changes in the C-Termini of Polyomavirus Origin Binding Domains”
